According to patent publication US20190119331A1, “SYSTEM AND METHOD OF OPTOGENETICALLY CONTROLLING METABOLIC PATHWAYS FOR THE PRODUCTION OF CHEMICALS” (The Trustees of Princeton University, published 2019):

Legend:
[1] = target: Gal4p-PSD fusion protein (yeast (Saccharomyces cerevisiae); Arabidopsis thaliana) (UniProt P04386)
Gal4p = Gal4p (yeast (Saccharomyces cerevisiae), UniProt P04386); assay: cell-based or functional assay

GFP expression from PGAL1-GFP reporter (GFP/OD600), blue light against dark, strain YEZ102 (OptoINVRT3) [1]: 70 fold | GFP expression from PGAL1-GFP reporter (GFP/OD600), blue light (GAL80 expressed) against dark, strain YEZ100 (OptoINVRT1, gal4 gal80 deleted background) (Gal4p): 45.7 fold decrease
B1: Gal80p (other)
chain: MDYNKRSSVSTVPNAAPIRVGFVGLNAAKGWAIKTHYPAILQLSSQFQITALYSPKIETSIATIQRLKLSNATAFPTLESFASSSTIDMIVIAIQVASHYEVVMPLLEFSKNNPNLKYLFVEWALACSLDQAESIYKAAAERGVQTIISLQGRKSPYILRAKELISQGYIGDINSIEIAGNGGWYGYERPVKSPKYIYEIGNGVDLVTTTFGHTIDILQYMTSSYFSRINAMVFNNIPEQELIDERGNRLGQRVPKTVPDHLLFQGTLLNGNVPVSCSFKGGKPTKKFTKNLVIDIHGTKGDLKLEGDAGFAEISNLVLYYSGTRANDFPLANGQQAPLDPGYDAGKEIMEVYHLRNYNAIVGNIHRLYQSISDFHFNTKKIPELPSQFVMQGFDFEGFPTLMDALILHRLIESVYKSNMMGSTLNVSNISHYSL
